pKd: −log10 of the molar value.
Target: low-affinity anti-HER2 scFv (scFv Kd = 210 nM)
Assay: BLI

**Q.** With “human epidermal growth factor receptor 2 (HER2) (from UniProt P04626 23-1255)” as the substance, how does the pKd read?
**A.** The pKd was 6.68.
